Data from patent publication US20230340145A1, “Methods of Treating High Risk Multiple Myeloma” (Janssen Biotech, Inc., priority 2017, published 2023).

Legend:
[1] = test system: patients with relapsed or refractory multiple myeloma; experiment: CASTOR (NCT02136134) phase 3 trial, safety (adverse events); assay type: in vivo, human
Text: The purpose of this study is to assess the effects of administration of daratumumab when combined with VELCADE® (bortezomib) and dexamethasone compared with VELCADE® (bortezomib) and dexamethasone alone, for participants with relapsed or refractory multiple myeloma. The study was a multicenter, randomized open-label active-controlled phase 3 trial. A prespecified interim analysis has been described in Palumpo et al., NEJM375:754-66, 2016. The clinical trial number for this study is NCT02136134. Daratumumab was administered as an IV infusion at a dose of 16 mg/kg once per week (days 1, 8, and 15) for cycles 1-3, once every 3 weeks (on Day 1) during cycles 4-8, and once every 4 weeks thereafter. […] Dexamethasone was administered orally at 20 mg on Days 1, 2, 4, 5, 8, 9, 11, and 12, for a total dose of 160 mg per cycle. Safety assessments included the evaluation of adverse events, clinical laboratory testing, vital signs, and electrocardiography. The adverse events were graded according to the National Cancer Institute Common Terminology Criteria for Adverse Events, version 4.03.

[2] = test system: patients with relapsed or refractory multiple myeloma; experiment: POLLUX (NCT02076009) phase 3 trial, safety (adverse events); assay type: in vivo, human
Text: The purpose of this study was to assess the effects of administration of daratumumab when combined with lenalinomide and dexamethasone compared with lenalinomide and dexamethasone alone, for participants with relapsed or refractory multiple myeloma. The study was a multicenter, randomized open-label active-controlled phase 3 trial. A prespecified interim analysis has been described in Dimopoulos et al., NEJM375: 1319-31, 2016. The clinical trial number for this study is NCT02076009. […] For the DRd, the dose of dexamethasone was split: dexamethasone was administered at a dose of 20 mg before infusion as prophylaxis for infusion-related reactions and 20 mg was administered the next day.

## daratumumab
[1]; % of patients with infusion-related reactions
  Patients with infusion-related reactions whose events occurred during the first infusion: 98.2%
[1]; associated with daratumumab, DVd arm
  Infusion-related reactions of any grade: 45.3%
[1]; in vivo
  Grade 4 infusion-related events: no grade 4 events
  Infusion-related reaction: bronchospasm: 9.1%
  Infusion-related reaction: cough: 7.0%
  Infusion-related reaction: dyspnea: 10.7%
  Patients who discontinued treatment because of infusion-related reactions: Two
[2]; % of the reactions
  Infusion-related reactions occurring during the first infusion: 92%
[2]; DRd arm
  Incidence of daratumumab infusion-related reactions of any grade: 47.7%
[2]; in vivo
  Infusion-related event of grade 4 or 5: no patient
  Infusion-related reaction: cough: 8.5%
  Infusion-related reaction: dyspnea: 8.5%
  Infusion-related reaction: vomiting: 5.7%
  Patients who discontinued daratumumab because of a grade 3 infusion-related event: One
